Laboratory results from publication PMC10303109 (Molecules, 2023).

Biological target: receptor-binding domain (RBD) of the wild-type SARS-CoV-2 spike protein (319-541 aa) (SARS-CoV-2, UniProt P0DTC2)
Experiment: cryo-EM structure
Details: both partners purified

B1: Fab domain of the antibody REGN10987 (Fab, V domains shown)
VH: QVQLVESGGGVVQPGRSLRLSCAASGFTFSNYAMYWVRQAPGKGLEWVAVISYDGSNKYYADSVKGRFTISRDNSKNTLYLQMNSLRTEDTAVYYCASGSDYGDYLLVYWGQGTLVTVSS
VL: QSALTQPASVSGSPGQSITISCTGTSSDVGGYNYVSWYQQHPGKAPKLMIYDVSKRPSGVSNRFSGSKSGNTASLTISGLQSEDEADYYCNSLTSISTWVFGGGTKLTVL
  binding result: binds
